Starred links: 1 amine or outer side, 2 acyl side, 3 side chain; linkers in the order of their positions; H or OH if unused. Non-standard residues stand in square brackets, D forms with d. Groups on a side chain read outwards from the residue. No end group written: not given here. *: point of attachment. C20 diacid = O=C(O)CCCCCCCCCCCCCCCCCCC(=O)*; γGlu = O=C(O)[C@H](CCC(=O)[*:2])N[*:1]; NMeY = CN[C@@H](Cc1ccc(O)cc1)C(=O)O
T1: NPY5R
T1 sequence (Q15761 1-445, species assumed, looked up): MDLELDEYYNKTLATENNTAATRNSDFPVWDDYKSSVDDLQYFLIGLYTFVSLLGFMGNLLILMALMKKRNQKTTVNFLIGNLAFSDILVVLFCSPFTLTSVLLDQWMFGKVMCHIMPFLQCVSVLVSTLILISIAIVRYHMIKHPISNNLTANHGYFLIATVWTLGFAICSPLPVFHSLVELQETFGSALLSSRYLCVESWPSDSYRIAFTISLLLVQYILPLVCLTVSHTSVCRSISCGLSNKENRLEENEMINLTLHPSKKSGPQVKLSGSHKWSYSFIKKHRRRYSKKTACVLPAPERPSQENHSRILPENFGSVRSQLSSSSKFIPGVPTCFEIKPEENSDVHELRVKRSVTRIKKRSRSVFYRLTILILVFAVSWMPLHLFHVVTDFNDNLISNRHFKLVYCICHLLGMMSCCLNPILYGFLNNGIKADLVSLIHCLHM

T2: NPY2R
T2 sequence (P49146 1-381, species assumed, looked up): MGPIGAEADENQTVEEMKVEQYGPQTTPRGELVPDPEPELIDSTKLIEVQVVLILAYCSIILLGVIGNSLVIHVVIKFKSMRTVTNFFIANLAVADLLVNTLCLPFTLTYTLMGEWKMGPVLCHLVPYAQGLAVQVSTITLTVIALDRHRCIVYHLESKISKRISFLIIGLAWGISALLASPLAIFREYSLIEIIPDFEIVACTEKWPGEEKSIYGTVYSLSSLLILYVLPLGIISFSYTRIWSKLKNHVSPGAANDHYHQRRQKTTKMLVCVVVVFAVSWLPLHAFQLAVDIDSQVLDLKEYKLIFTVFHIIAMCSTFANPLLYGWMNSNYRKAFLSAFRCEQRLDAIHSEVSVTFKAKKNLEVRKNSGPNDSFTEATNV


Columns and labels:
NPY5R = biological target: T1, NPY5R; experiment: cell-based or functional assay
NPY2R = biological target: T2, NPY2R; experiment: cell-based or functional assay

| Binder | NPY5R pEC50 (NPY5R) | NPY2R pEC50 (NPY2R) |
| --- | --- | --- |
| PKPK([γGlu-γGlu-C20 diacid])APGKDASPEEWNRYYADARHYLNWLTRQR[NMeY]-NH2 (N-terminus assumed; SMILES CC(C)C[C@H](NC(=O)[C@H](Cc1ccc(O)cc1)NC(=O)[C@H](Cc1c[nH]cn1)NC(=O)[C@H](CCCNC(=N)N)NC(=O)[C@H](C)NC(=O)[C@H](CC(=O)O)NC(=O)[C@H](C)NC(=O)[C@H](Cc1ccc(O)cc1)NC(=O)[C@H](Cc1ccc(O)cc1)NC(=O)[C@H](CCCNC(=N)N)NC(=O)[C@H](CC(N)=O)NC(=O)[C@H](Cc1c[nH]c2ccccc12)NC(=O)[C@H](CCC(=O)O)NC(=O)[C@H](CCC(=O)O)NC(=O)[C@@H]1CCCN1C(=O)[C@H](CO)NC(=O)[C@H](C)NC(=O)[C@H](CC(=O)O)NC(=O)[C@H](CCCCN)NC(=O)CNC(=O)[C@@H]1CCCN1C(=O)[C@H](C)NC(=O)[C@H](CCCCNC(=O)CC[C@H](NC(=O)CC[C@H](NC(=O)CCCCCCCCCCCCCCCCCCC(=O)O)C(=O)O)C(=O)O)NC(=O)[C@@H]1CCCN1C(=O)[C@H](CCCCN)NC(=O)[C@@H]1CCCN1)C(=O)N[C@@H](CC(N)=O)C(=O)N[C@@H](Cc1c[nH]c2ccccc12)C(=O)N[C@@H](CC(C)C)C(=O)N[C@H](C(=O)N[C@@H](CCCNC(=N)N)C(=O)N[C@@H](CCC(N)=O)C(=O)N[C@@H](CCCNC(=N)N)C(=O)N(C)[C@@H](Cc1ccc(O)cc1)C(N)=O)[C@@H](C)O) [Compound A6] | 7.7 -Log(EC50, M) | 8.9 -Log(EC50, M) |
| PKPEAPK([γGlu-γGlu-C20 diacid])KDASPEEWNRYYADARHYLNWLTRQR[NMeY]-NH2 (N-terminus assumed; SMILES CC(C)C[C@H](NC(=O)[C@H](Cc1ccc(O)cc1)NC(=O)[C@H](Cc1c[nH]cn1)NC(=O)[C@H](CCCNC(=N)N)NC(=O)[C@H](C)NC(=O)[C@H](CC(=O)O)NC(=O)[C@H](C)NC(=O)[C@H](Cc1ccc(O)cc1)NC(=O)[C@H](Cc1ccc(O)cc1)NC(=O)[C@H](CCCNC(=N)N)NC(=O)[C@H](CC(N)=O)NC(=O)[C@H](Cc1c[nH]c2ccccc12)NC(=O)[C@H](CCC(=O)O)NC(=O)[C@H](CCC(=O)O)NC(=O)[C@@H]1CCCN1C(=O)[C@H](CO)NC(=O)[C@H](C)NC(=O)[C@H](CC(=O)O)NC(=O)[C@H](CCCCN)NC(=O)[C@H](CCCCNC(=O)CC[C@H](NC(=O)CC[C@H](NC(=O)CCCCCCCCCCCCCCCCCCC(=O)O)C(=O)O)C(=O)O)NC(=O)[C@@H]1CCCN1C(=O)[C@H](C)NC(=O)[C@H](CCC(=O)O)NC(=O)[C@@H]1CCCN1C(=O)[C@H](CCCCN)NC(=O)[C@@H]1CCCN1)C(=O)N[C@@H](CC(N)=O)C(=O)N[C@@H](Cc1c[nH]c2ccccc12)C(=O)N[C@@H](CC(C)C)C(=O)N[C@H](C(=O)N[C@@H](CCCNC(=N)N)C(=O)N[C@@H](CCC(N)=O)C(=O)N[C@@H](CCCNC(=N)N)C(=O)N(C)[C@@H](Cc1ccc(O)cc1)C(N)=O)[C@@H](C)O) [Compound A7] | 6 -Log(EC50, M) | 9.7 -Log(EC50, M) |
| PKPEAPGKDASPK([γGlu-γGlu-C20 diacid])EWNRYYADARHYLNWLTRQR[NMeY]-NH2 (N-terminus assumed; SMILES CC(C)C[C@H](NC(=O)[C@H](Cc1ccc(O)cc1)NC(=O)[C@H](Cc1c[nH]cn1)NC(=O)[C@H](CCCNC(=N)N)NC(=O)[C@H](C)NC(=O)[C@H](CC(=O)O)NC(=O)[C@H](C)NC(=O)[C@H](Cc1ccc(O)cc1)NC(=O)[C@H](Cc1ccc(O)cc1)NC(=O)[C@H](CCCNC(=N)N)NC(=O)[C@H](CC(N)=O)NC(=O)[C@H](Cc1c[nH]c2ccccc12)NC(=O)[C@H](CCC(=O)O)NC(=O)[C@H](CCCCNC(=O)CC[C@H](NC(=O)CC[C@H](NC(=O)CCCCCCCCCCCCCCCCCCC(=O)O)C(=O)O)C(=O)O)NC(=O)[C@@H]1CCCN1C(=O)[C@H](CO)NC(=O)[C@H](C)NC(=O)[C@H](CC(=O)O)NC(=O)[C@H](CCCCN)NC(=O)CNC(=O)[C@@H]1CCCN1C(=O)[C@H](C)NC(=O)[C@H](CCC(=O)O)NC(=O)[C@@H]1CCCN1C(=O)[C@H](CCCCN)NC(=O)[C@@H]1CCCN1)C(=O)N[C@@H](CC(N)=O)C(=O)N[C@@H](Cc1c[nH]c2ccccc12)C(=O)N[C@@H](CC(C)C)C(=O)N[C@H](C(=O)N[C@@H](CCCNC(=N)N)C(=O)N[C@@H](CCC(N)=O)C(=O)N[C@@H](CCCNC(=N)N)C(=O)N(C)[C@@H](Cc1ccc(O)cc1)C(N)=O)[C@@H](C)O) [Compound A8] | 7.1 -Log(EC50, M) | 9.6 -Log(EC50, M) |
| PKPEAPGKDASPEEWK([γGlu-γGlu-C20 diacid])RYYADARHYLNWLTRQR[NMeY]-NH2 (N-terminus assumed; SMILES CC(C)C[C@H](NC(=O)[C@H](Cc1ccc(O)cc1)NC(=O)[C@H](Cc1c[nH]cn1)NC(=O)[C@H](CCCNC(=N)N)NC(=O)[C@H](C)NC(=O)[C@H](CC(=O)O)NC(=O)[C@H](C)NC(=O)[C@H](Cc1ccc(O)cc1)NC(=O)[C@H](Cc1ccc(O)cc1)NC(=O)[C@H](CCCNC(=N)N)NC(=O)[C@H](CCCCNC(=O)CC[C@H](NC(=O)CC[C@H](NC(=O)CCCCCCCCCCCCCCCCCCC(=O)O)C(=O)O)C(=O)O)NC(=O)[C@H](Cc1c[nH]c2ccccc12)NC(=O)[C@H](CCC(=O)O)NC(=O)[C@H](CCC(=O)O)NC(=O)[C@@H]1CCCN1C(=O)[C@H](CO)NC(=O)[C@H](C)NC(=O)[C@H](CC(=O)O)NC(=O)[C@H](CCCCN)NC(=O)CNC(=O)[C@@H]1CCCN1C(=O)[C@H](C)NC(=O)[C@H](CCC(=O)O)NC(=O)[C@@H]1CCCN1C(=O)[C@H](CCCCN)NC(=O)[C@@H]1CCCN1)C(=O)N[C@@H](CC(N)=O)C(=O)N[C@@H](Cc1c[nH]c2ccccc12)C(=O)N[C@@H](CC(C)C)C(=O)N[C@H](C(=O)N[C@@H](CCCNC(=N)N)C(=O)N[C@@H](CCC(N)=O)C(=O)N[C@@H](CCCNC(=N)N)C(=O)N(C)[C@@H](Cc1ccc(O)cc1)C(N)=O)[C@@H](C)O) [Compound A9] | 6 -Log(EC50, M) | 9.6 -Log(EC50, M) |
| PKPEAPGK([γGlu-γGlu-C20 diacid])DASPEEWNRYYADLRHYLNWLTRQRF-NH2 [Compound A13] | 8.7 -Log(EC50, M) | 10.2 -Log(EC50, M) |
| PKPEKPGK([γGlu-γGlu-C20 diacid])DASPEEWNRYYKDLRHYLNWLTRQRF-NH2 (N-terminus assumed; SMILES CC(C)C[C@H](NC(=O)[C@H](CC(=O)O)NC(=O)[C@H](CCCCN)NC(=O)[C@H](Cc1ccc(O)cc1)NC(=O)[C@H](Cc1ccc(O)cc1)NC(=O)[C@H](CCCNC(=N)N)NC(=O)[C@H](CC(N)=O)NC(=O)[C@H](Cc1c[nH]c2ccccc12)NC(=O)[C@H](CCC(=O)O)NC(=O)[C@H](CCC(=O)O)NC(=O)[C@@H]1CCCN1C(=O)[C@H](CO)NC(=O)[C@H](C)NC(=O)[C@H](CC(=O)O)NC(=O)[C@H](CCCCNC(=O)CC[C@H](NC(=O)CC[C@H](NC(=O)CCCCCCCCCCCCCCCCCCC(=O)O)C(=O)O)C(=O)O)NC(=O)CNC(=O)[C@@H]1CCCN1C(=O)[C@H](CCCCN)NC(=O)[C@H](CCC(=O)O)NC(=O)[C@@H]1CCCN1C(=O)[C@H](CCCCN)NC(=O)[C@@H]1CCCN1)C(=O)N[C@@H](CCCNC(=N)N)C(=O)N[C@@H](Cc1c[nH]cn1)C(=O)N[C@@H](Cc1ccc(O)cc1)C(=O)N[C@@H](CC(C)C)C(=O)N[C@@H](CC(N)=O)C(=O)N[C@@H](Cc1c[nH]c2ccccc12)C(=O)N[C@@H](CC(C)C)C(=O)N[C@H](C(=O)N[C@@H](CCCNC(=N)N)C(=O)N[C@@H](CCC(N)=O)C(=O)N[C@@H](CCCNC(=N)N)C(=O)N[C@@H](Cc1ccccc1)C(N)=O)[C@@H](C)O) [Compound A19] | 8.7 -Log(EC50, M) | 10.5 -Log(EC50, M) |
| PKPEAPGK([γGlu-γGlu-C20 diacid])DASPKEWNRYYKDLRHYLNWLTRQRF-NH2 [Compound A20] | 8.7 -Log(EC50, M) | 10.5 -Log(EC50, M) |
| PKPEAPGK([γGlu-γGlu-C20 diacid])DASPEEWNRYY[dK]DLRHYLNWLTRQRF-NH2 [Compound A21] | 8.3 -Log(EC50, M) | 10.4 -Log(EC50, M) |
| PKPEAPGK([γGlu-γGlu-C20 diacid])DASPEEWQRYYKDLRHYLNWLTRQRF-NH2 [Compound A23] | 8.6 -Log(EC50, M) | 10.4 -Log(EC50, M) |
| PKPEAPGK([γGlu-γGlu-C20 diacid])DASPEEWDRYYKDLRHYLNWLTRQRF-NH2 [Compound A24] | 8.7 -Log(EC50, M) | 10.5 -Log(EC50, M) |
| PKPEAPGK([γGlu-γGlu-C20 diacid])DASPEEWSRYYKDLRHYLNWLTRQRF-NH2 [Compound A25] | 8.4 -Log(EC50, M) | 10.9 -Log(EC50, M) |
| PKPEAPGK([γGlu-γGlu-C20 diacid])DASPEEWTRYYKDLRHYLNWLTRQRF-NH2 [Compound A26] | 8.5 -Log(EC50, M) | 10.7 -Log(EC50, M) |
